Consider three molecules from patent US6045793, “Recombinant ribonuclease proteins” (dated 2000).

Common to all, as to assay: cell-based or functional assay
Assay [1] concerns the target transferrin receptor on SF539 human glioma cells (human, UniProt P02786).
The target in assay [2] is T1, recombinant human eosinophil-derived neurotoxin (human).
T1 chain: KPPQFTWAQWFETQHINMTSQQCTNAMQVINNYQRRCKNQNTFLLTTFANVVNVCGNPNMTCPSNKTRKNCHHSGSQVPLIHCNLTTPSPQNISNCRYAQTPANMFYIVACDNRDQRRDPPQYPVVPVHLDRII

The target of the next assay is T2, rEDN(1-21) rOnc (human; Rana pipiens).
T2 chain: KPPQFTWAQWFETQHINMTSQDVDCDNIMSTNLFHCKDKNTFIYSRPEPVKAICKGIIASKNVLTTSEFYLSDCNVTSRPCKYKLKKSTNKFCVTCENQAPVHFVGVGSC

Another assay addresses T3, rEDN(1-21) rOncG26 (human EDN part, Rana pipiens Onc part).
T3 chain: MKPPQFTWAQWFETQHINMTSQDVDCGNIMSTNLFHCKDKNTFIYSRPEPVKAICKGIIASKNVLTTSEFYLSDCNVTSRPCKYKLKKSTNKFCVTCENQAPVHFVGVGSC

Another assay concerns the target T4, [Met-(-1)]rOnc (Rana pipiens).
T4 chain: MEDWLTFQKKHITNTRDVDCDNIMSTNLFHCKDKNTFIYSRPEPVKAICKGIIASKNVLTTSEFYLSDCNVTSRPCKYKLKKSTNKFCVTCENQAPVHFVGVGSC

The target in a further assay is T5, Native ONCONASE (Rana pipiens, pyroglutamyl amino acid residue (<Glu-1) at the amino terminus).
T5 chain: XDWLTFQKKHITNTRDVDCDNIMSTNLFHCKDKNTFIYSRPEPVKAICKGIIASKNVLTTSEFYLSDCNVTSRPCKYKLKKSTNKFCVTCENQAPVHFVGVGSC

B1: [Met-(-1)Glu]rOncFBE6 (scFv)
chain: MEDWLTFQKKHITNTRDVDCDNIMSTNLFHCKDKNTFIYSRPEPVKAICKGIIASKNVLTTSEFYLSDCNVTSRPCKYKLKKSTNKFCVTCENQAPVHFVGVGSCAKKLNDAQAPKSDDIKMTQSPSSMYASLGERVTFTCKASQDINNYLCWFQQKPGKSPKTLIYRANRLVDGVPSRFSGSGSGQDYSLTISSLEYEDMGIYYCLQYDEFPYTFGGGTKLEIKGGGGSGGGGSGGGGSEVQLQQSGTVLARPGASVKMSCKASGYTFSSYWMHWIKQRPGQGLDWIVAIDPRNSDTIYNPQFKHKAKLTAVTSTSTAYMELNSLTNEDSAVYYCTPLYYFDSWGQGTTLTVSSHHH
Take B1: the “IC50 (nM), inhibition of protein synthesis in SF539 human glioma cells” value in assay [1] was found to be 0.5 nM.

B2: Placental ribonuclease inhibitor (other)
chain: SLDIQSLDIQCEELSDARWAELLPLLQQCQVVRLDDCGLTEARCKDISSALRVNPALAELNLRSNELGDVGVHCVLQGLQTPSCKIQKLSLQNCCLTGAGCGVLSSTLRTLPTLQELHLSDNLLGDAGLQLLCEGLLDPQCRLEKLQLEYCSLSAASCEPLASVLRAKPDFKELTVSNNDINEAGVRVLCQGLKDSPCQLEALKLESCGVTSDNCRDLCGIVASKASLRELALGSNKLGDVGMAELCPGLLHPSSRLRTLWIWECGITAKGCGDLCRVLRAKESLKELSLAGNELGDEGARLLCETLLEPGCQLESLWVKSCSFTAACCSHFSSVLAQNRFLLELQISNNRLEDAGVRELCQGLGQPGSVLRVLWLADCDVSDSSCSSLAATLLANHSLRELDLSNNCLGDAGILQLVESVRQPGCLLEQLVLYDIYWSEEMEDRLQALEKDKPSLRVIS
For the molecule B2, the “Fold Difference of IC50 (ng/ml) in rabbit reticulocyte lysate, (+)PRI against (-)PRI” value in assay [2] was more than 30.7 fold; in the assay with rEDN(1-21) rOnc it was 2 fold; with rEDN(1-21) rOncG26, 21 fold; in assay [Met-(-1)]rOnc it was 1.4 fold; with Native ONCONASE, 1.2 fold. The “IC50 (ng/ml) of the RNase for inhibition of protein synthesis in rabbit reticulocyte lysate, (+)PRI” value came out at 3200 ng/mL in the assay with rEDN(1-21) rOnc, 600 ng/mL in the assay with rEDN(1-21) rOncG26, 140 ng/mL in assay [Met-(-1)]rOnc and 0.24 ng/mL in the assay with Native ONCONASE.

B3: E6FB[Met-(-1)Ser]rOnc (scFv)
chain: DIKMTQSPSSMYASLGERVTFTCKASQDINNYLCWFQQKPGKSPKTLIYRANRLVDGVPSRFSGSGSGQDYSLTISSLEYEDMGIYYCLQYDEFPYTFGGGTKLEIKGGGGSGGGGSGGGGSEVQLQQSGTVLARPGASVKMSCKASGYTFSSYWMHWIKQRPGQGLDWIVAIDPRNSDTIYNPQFKHKAKLTAVTSTSTAYMELNSLTNEDSAVYYCTPLYYFDSWGQGTTLTVSSAKKLNDAQAPKSDMSDWLTFQKKHITNTRDVDCDNIMSTNLFHCKDKNTFIYSRPEPVKAICKGIIASKNVLTTSEFYLSDCNVTSRPCKYKLKKSTNKFCVTCENQAPVHFVGVGSC
In the case of B3, the “IC50 (nM), inhibition of protein synthesis in SF539 human glioma cells” value in assay [1] came out at 0.22 nM.
